Experimental data from US10632208B2, “Peptide-mediated drug delivery across epithelial barrier” (Purdue Research Foundation, priority 2017, dated 2020).

How the values were obtained:
L. monocytogenes = experiment: Translocation of L. monocytogenes through polarized Caco-2 monolayers on Transwell filter-inserts; type: cell-based, Listeria monocytogenes; conditions: LAP 1 or 2 μg/mL, MOI 50
Method: Caco-2 cells were grown as monolayers on Transwell inserts with 3.0 μm pores (Corning-Costar) for up to 14-21 days. TEER was measured to monitor the monolayer integrity (Millicells Voltmeter, Millipore). A TEER value of at least 200 Ω/cm^2 (±10) was used as the basal value to monitor the monolayer integrity. Bacterial cells were washed three times in PBS and resuspended in DMEM-FBS (10%) at a MOI of ˜50 and were added to the apical side of the Transwell system, and after 2 h incubation period at 37° C. in 5% CO2, the liquid was collected from the basal well, and then translocated bacteria were enumerated by plating (Burkholder and Bhunia, 2010). For analysis of FD4 flux, non-metabolizable 4 kDa FITC-labeled dextran (FD4; 5 mg/ml, Sigma-Aldrich) was added with bacteria (MOI, ˜50) resuspended in DMEM-FBS (10%) and added to the apical side. After 2 h incubation at 37° C. in 5% CO2, the liquid was collected from the basal well and fluorescence was measured (Em: 485 nm; Ex: 520 nm; Spectramax, Molecular Devices). For pharmacological inhibition treatments, PDTC (100 μM for 30 min pre-treatment; R&D Systems), Bay-11-7085 (10 μM for 30 min pre-treatment; Sigma-Aldrich), ML-9 (20 μM for 30 min pre-treatment; Sigma-Aldrich), PIK (150 μM, 30 min-pre-treatment and kept during 2-h infection) (Zolotarevsky et al., 2002), and Cytochalasin D (1 μg/mL for 1 h; Sigma-Aldrich) were used separately.
For re-association of externally added LAP to the lap^− mutant, bacteria were harvested from 1 ml of overnight grown culture, and the pellet was washed three times in PBS before the addition of 1 or 2 μg/mL of purified LAP. The mixture was incubated for 30 min at 30° C. with continuous shaking and then pelleted, washed five times in the PBS, resuspended in DMEM, and used in the aforementioned translocation assay.

Caco-2 cells = experiment: Caco-2 cell viability assay (lactate dehydrogenase release); type: cell-based, human; conditions: Caco-2 cells treated with purified recombinant LAP
Method: Caco-2 cell viability assay. To determine Caco-2 viability, cell culture supernatants from Caco-2 cells infected with WT, lap^−, lap^−lap^+, ΔinlA and ΔinlA inlA^+ strains (MOI 50, 2 h) grown on Transwell inserts or treated with the purified recombinant LAP for 24 or 48 h were assayed for lactate dehydrogenase release (Thermo Fisher Scientific). Two controls were included for calculation of percent cytotoxicity (LDH release). Low control consisted of supernatant from untreated Caco-2 cells with no exposure to bacteria. High control was from cells treated with 0.1% Triton X-100 for one minute.

NF-κB(p65) = experiment: Confocal immunofluorescence of p65 localization in Caco-2 cells; type: cell-based, human; conditions: 30 min
Method: For antibody labeling in cells, Caco-2 cells, were grown to 40-50% confluence in four-chambered slides (Millipore). At the end of the treatment, the cells were fixed with 3.7% formaldehyde in PBS for 20 min and permeabilized and blocked with PBS containing 0.3% Triton X-100 and 3% BSA (Sigma-Aldrich) for 1 h at room temperature and then incubated with respective antibodies overnight at 4° C. Following antibody incubation, the cells were washed with PBS (3 cycles, 5 min) and incubated with FITC or Alexa Fluor 555-conjugated secondary antibody for 2 h at room temperature. The nuclei were stained with DAPI (500 ng/ml; Cell signaling) and slides were mounted in ProLong antifade reagent (Cell Signaling).
All images were acquired using a Nikon A1R MP Multiphoton (Nikon) Confocal fluorescence microscope using a 60× oil immersion objective equipped with the Nikon Elements software (Nikon) at the Purdue Bioscience Imaging Facility. The X-Z and Y-Z cross-sections were produced by orthogonal reconstructions from z-stack scanning at 0.15 μm intervals taken with 60× objective in 5 μm thick paraffin embedded tissue section. Three-dimensional reconstructions were performed using Nikon elements software (Nikon).

MLCK = experiment: Immunoblot of MLCK and P-MLC in whole-cell Caco-2 lysates; type: cell-based, human; conditions: purified LAP 1 μg/mL, 60 min pi
Method: To extract the proteins from Caco-2 cells, cells were seeded in 6-well plates for 14-21 days. Following treatment, the cells were washed, scraped from the bottom of 6-well plates, suspended in PBS, and pelleted by centrifugation. Total protein from Caco-2 cells was extracted using the M-PER Extraction Kit (Thermo Fisher Scientific). Detergent-insoluble (membrane) and detergent-soluble (cytosolic) proteins were isolated using a Mem-Per Eukaryotic Protein Extraction Kit (Thermo Fisher Scientific) while the cytosolic and nuclear proteins were extracted using NE-PER Extraction Reagent (Thermo Fisher Scientific). To extract proteins from ileal epithelial cells, the epithelial cell fraction from ileal tissues were isolated as described above and the detergent-insoluble and the detergent-soluble proteins were isolated using a Mem-Per Eukaryotic Protein Extraction Kit.
To extract total protein from intact bacterial cells, sample solvent buffer and sonication (3 cycles of 20 min each) were used. […] The protein concentrations were determined by BCA assay (Thermo Fisher Scientific), and separated on SDS-PAGE gels (10-12.5% polyacrylamide) and electro-transferred to polyvinylidene difluoride (PVDF) membrane (Millipore). […] To compare the reaction intensities, the average band densities were determined using Quantity One software (Bio-Rad). […]

B1: LAP: Listeria adhesion protein, alcohol acetaldehyde dehydrogenase of Listeria monocytogenes, 866 aa, 94 kDa; recombinant, histidine-tagged form SEQ ID NO: 10 (protein)
chain: MAIKENAAQEVLEVQKVIDRLADNGQKALKAFESYNQEQVDNIVHAMALAGLDQHMPLAKLAVEETGRGLYEDKCIKNIFATEYIWNNIKNNKTVGVINEDVQTGVIEIAEPVGVVAGVTPVTNPTSTTLFKAIIAIKTRNPIIFAFHPSAQRCSSAAAKVVYDAAIAAGAPEHCIQWVEKPSLEATKQLMNHDKVALVLATGGAGMVKSAYSTGKPALGVGPGNVPAYIDKTAKIKRSVNDIILSKSFDQGMICASEQAVIVDKEVAKEVKAEMEANKCYFVKGAEFKKLESYVINPEKGTLNPDVVGKSPAWIANQAGFKVPEDTKILVAEIKGVGDKYPLSHEKLSPVLAFIEAANQAEAFDRCEEMLVYGGLGHSAVIHSTDKEVQKAFGIRMKACRIIVNAPSAQGGIGDIYNGFIPSLTLGCGSYGKNSVSQNVSATNLLNVKRIADRRNNMQWFKLPPKIFFEKYSTQYLQKMEGVERVFIVTDPGMGSFKYVDVVIEHLKKRGNDVAYQVFADVEPDPSDVTVYKGAELMKDFKPDTIIALGGGSAMDAAKGMWLFYEHPEASFFGLKQKFLDIRKRTFKYPKLGGKAKFVAIPTTSGTGSEVTPFAVITDKENNIKYPLADYELTPDVAIVDAQYVTTVPAHITADTGMDVLTHAIESYVSVMASDYTRGLSIRAIELVFENLRESVLTGDPDAREKMHNASALAGMAFANAFLGINHSLAHKIGPEFHIPHGRANAILMPHVIRYNALKPKKHALFPRYESFRADEDYARISRIIGFPAATTEEGVKSLVDEIIKLGKDVGIDMSLKGQNVAKKDLDAVVDTLADRAFMDQCTTANPKQPLVSELKEIYLEAYKGV
modifications: Listeria monocytogenes
B1 was tested. Which “translocation of the lap- strain after pre-incubation with exogenous purified LAP” value (L. monocytogenes) did it give?
Its value is “rescued the translocation defect”.

What about the “cytopathic or cytotoxic effects (LDH assay)” value (Caco-2 cells) of the same molecule?
The value was “without causing any cytopathic or cytotoxic effects”.

What about the “localization of p65” value (NF-κB(p65); Caco-2 cells, LAP 1 μg/mL or TNF-α 10 ng/mL) of the same molecule?
The value was “in the nucleus”.

What about the “localization of p65” value (NF-κB(p65); Hsp60 knocked-down Caco-2 cells) of the same molecule?
The value was “retained p65 within the cytoplasm”.

What about the “localization of p65” value (NF-κB(p65); shRNA vector control Caco-2 cells) of the same molecule?
Its value is “nuclear translocation of p65”.

What about the “increase of MLCK protein expression levels” value (MLCK) of the same molecule?
Its value is 249±9%.
